Laboratory results reported in US6689878B2, “Target of RNAIII activating protein (TRAP)” (The Regents of the University of California, priority 1998, dated 2004).

Assay: Sensitivity of TRAP phosphorylation to acidic and basic conditions
Type: physicochemical, Staphylococcus aureus
Source text: Two-component systems act through phosphorylation of the substrate domain of the sensor protein and subsequent transfer of the phosphate to an aspartate residue in the regulator protein. The initial phosphorylation is catalyzed by a protein histidine kinase domain in the sensor protein and results in an N-phosphorylated histidine residue, which is stable in alkaline conditions but not in acidic conditions (Wei et al. Methods Enymol. 200:388-414 (1991)). To test whether TRAP may be histidine-phosphorylated and therefore a candidate sensor to RAP, phosphorylated TRAP was tested for sensitivity to acidic and basic conditions. Phosphorylated TRAP was incubated at pH ranging from 3-10, for 10 min at room temperature. The mixture was then applied to SDS PAGE and the gel autoradiographed.

B1: Phosphorylated TRAP: approximately 21 kDa S. aureus protein target of RAP, SEQ ID NO:2, phosphorylated by RAP (protein)
chain: MKKLYTSYGTYGFLHQIKINNPTHQLFQFSASDTSVIFEETDGETVLKSPSIYEVIKEIGEFSEHHFYCAIFIPSTEDHAYQLEKKLISVDDNFRNFGGFKSYRLLRPAKGTTYKIYFGFADRHAYEDFKQSDAFNDHFSKDALSHYFGSSGQHSSYFERYLYPIKE
modifications: phosphorylated
Q: For B1, which “Stability of TRAP phosphorylation in lower pHs” value (lower pHs (range tested pH 3-10), 10 min at room temperature) is on record?
A: Its value is “labile”.

Q: What about the “Stability of TRAP phosphorylation at pH 8-10” value (pH 8-10, 10 min at room temperature) of the same molecule?
A: Its value is “stable”.
